Source: patent US20250282868A1

Legend:
mouse TREM2 (mouse) [1] = biological target: mouse TREM2 (mouse) (UniProt Q99NH8); assay: MFI on CT26 cells over-expressing mouse TREM2 and DAP12; control in the row of EOS006166
mouse TREM2 (mouse) [2] = biological target: mouse TREM2 (mouse) (UniProt Q99NH8); assay: MFI on CT26 cells over-expressing mouse TREM2 and DAP12; control in the row of EOS006162
mouse TREM2 (mouse) [3] = biological target: mouse TREM2 (mouse) (UniProt Q99NH8); assay: MFI on CT26 cells over-expressing mouse TREM2 and DAP12; control in the row of EOS006175
mouse TREM2 (mouse) [4] = biological target: mouse TREM2 (mouse) (UniProt Q99NH8); assay: MFI on CT26 cells over-expressing mouse TREM2 and DAP12; control in the row of EOS006176
mouse TREM2 (mouse) [5] = biological target: mouse TREM2 (mouse) (UniProt Q99NH8); assay: MFI on CT26 cells over-expressing mouse TREM2 and DAP12; control in the row of EOS006173
mouse TREM2 (mouse) [6] = biological target: mouse TREM2 (mouse) (UniProt Q99NH8); assay: MFI on CT26 cells over-expressing mouse TREM2 and DAP12; control in the row of EOS006165
mouse TREM2 (mouse) [7] = biological target: mouse TREM2 (mouse) (UniProt Q99NH8); assay: MFI on CT26 cells over-expressing mouse TREM2 and DAP12; control in the row of EOS006172
mouse TREM2 (mouse) [8] = biological target: mouse TREM2 (mouse) (UniProt Q99NH8); assay: MFI on CT26 cells over-expressing mouse TREM2 and DAP12; control in the row of EOS006180
mouse TREM2 (mouse) [9] = biological target: mouse TREM2 (mouse) (UniProt Q99NH8); assay: MFI on CT26 cells over-expressing mouse TREM2 and DAP12; control in the row of EOS006163
mouse TREM2 (mouse) [10] = biological target: mouse TREM2 (mouse) (UniProt Q99NH8); assay: MFI on CT26 cells over-expressing mouse TREM2 and DAP12; control in the row of EOS006179
mouse TREM2 (mouse) [11] = biological target: mouse TREM2 (mouse) (UniProt Q99NH8); assay: MFI on CT26 cells over-expressing mouse TREM2 and DAP12; control in the row of EOS006174
mouse TREM2 (mouse) [12] = biological target: mouse TREM2 (mouse) (UniProt Q99NH8); assay: MFI on CT26 cells over-expressing mouse TREM2 and DAP12; control in the row of EOS006168
mouse TREM2 (mouse) [13] = biological target: mouse TREM2 (mouse) (UniProt Q99NH8); assay: MFI on CT26 cells over-expressing mouse TREM2 and DAP12; control in the row of EOS006164
mouse TREM2 (mouse) [14] = biological target: mouse TREM2 (mouse) (UniProt Q99NH8); assay: MFI on CT26 cells over-expressing mouse TREM2 and DAP12; control in the row of EOS006169
mouse TREM2 (mouse) [15] = biological target: mouse TREM2 (mouse) (UniProt Q99NH8); assay: MFI on CT26 cells over-expressing mouse TREM2 and DAP12; control in the row of EOS006178
mouse TREM2 (mouse) [16] = biological target: mouse TREM2 (mouse) (UniProt Q99NH8); assay: MFI on CT26 cells over-expressing mouse TREM2 and DAP12; control in the row of EOS006181
mouse TREM2 (mouse) [17] = biological target: mouse TREM2 (mouse) (UniProt Q99NH8); assay: MFI on CT26 cells over-expressing mouse TREM2 and DAP12; control in the row of EOS006167
mouse TREM2 (mouse) [18] = biological target: mouse TREM2 (mouse) (UniProt Q99NH8); assay: MFI on CT26 cells over-expressing mouse TREM2 and DAP12; control in the row of EOS006170
mouse TREM2 (mouse) [19] = biological target: mouse TREM2 (mouse) (UniProt Q99NH8); assay: MFI on CT26 cells over-expressing mouse TREM2 and DAP12; control in the row of Ab52
mouse TREM2 (mouse) [20] = biological target: mouse TREM2 (mouse) (UniProt Q99NH8); assay: MFI on CT26 cells over-expressing mouse TREM2 and DAP12; control in the row of PN-37012
mouse TREM2 (mouse) [21] = biological target: mouse TREM2 (mouse) (UniProt Q99NH8); assay: MFI on CT26 cells over-expressing mouse TREM2 and DAP12; control in the row of EOS006177

mouse TREM2 (mouse), sequence (Q99NH8 19-227): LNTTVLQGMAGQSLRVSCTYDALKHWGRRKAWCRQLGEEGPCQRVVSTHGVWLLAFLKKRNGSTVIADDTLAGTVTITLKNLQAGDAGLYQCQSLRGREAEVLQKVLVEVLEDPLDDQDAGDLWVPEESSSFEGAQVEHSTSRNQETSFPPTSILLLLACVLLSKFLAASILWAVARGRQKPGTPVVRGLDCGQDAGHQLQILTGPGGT

Isotype control (antibody) was tested, and the Isotype control on CT26-TREM2 MFI (mouse TREM2 (mouse) [1]) was 295 MFI, the Isotype control on CT26-TREM2 MFI (mouse TREM2 (mouse) [2]) was 2170 MFI and the Isotype control on CT26-TREM2 MFI (mouse TREM2 (mouse) [3]) was 679 MFI. For the same substance, the Isotype control on CT26-TREM2 MFI (mouse TREM2 (mouse) [4]) was 345 MFI, the Isotype control on CT26-TREM2 MFI (mouse TREM2 (mouse) [5]) was 679 MFI and the Isotype control on CT26-TREM2 MFI (mouse TREM2 (mouse) [6]) was 2170 MFI. For the same substance, the Isotype control on CT26-TREM2 MFI (mouse TREM2 (mouse) [7]) was 2170 MFI, the Isotype control on CT26-TREM2 MFI (mouse TREM2 (mouse) [8]) was 2170 MFI and the Isotype control on CT26-TREM2 MFI (mouse TREM2 (mouse) [9]) was 402 MFI. It also gave an Isotype control on CT26-TREM2 MFI (mouse TREM2 (mouse) [10]) of 679 MFI, an Isotype control on CT26-TREM2 MFI (mouse TREM2 (mouse) [11]) of 345 MFI and an Isotype control on CT26-TREM2 MFI (mouse TREM2 (mouse) [12]) of 2170 MFI. For the same substance, the Isotype control on CT26-TREM2 MFI (mouse TREM2 (mouse) [13]) was 345 MFI, the Isotype control on CT26-TREM2 MFI (mouse TREM2 (mouse) [14]) was 679 MFI and the Isotype control on CT26-TREM2 MFI (mouse TREM2 (mouse) [15]) was 345 MFI. The Isotype control on CT26-TREM2 MFI (mouse TREM2 (mouse) [16]) was 345 MFI, the Isotype control on CT26-TREM2 MFI (mouse TREM2 (mouse) [17]) was 2170 MFI and the Isotype control on CT26-TREM2 MFI (mouse TREM2 (mouse) [18]) was 679 MFI. The Isotype control on CT26-TREM2 MFI (mouse TREM2 (mouse) [19]) was 402 MFI, the Isotype control on CT26-TREM2 MFI (mouse TREM2 (mouse) [20]) was 302 MFI and the Isotype control on CT26-TREM2 MFI (mouse TREM2 (mouse) [21]) was 345 MFI.
